Measurements as given in patent US20010018195.

Key:
[1] = biological target: GST-XIAP fusion protein, P98170
Chain of GST-XIAP fusion protein, P98170 (P98170 whole entry, the tested form may be a part): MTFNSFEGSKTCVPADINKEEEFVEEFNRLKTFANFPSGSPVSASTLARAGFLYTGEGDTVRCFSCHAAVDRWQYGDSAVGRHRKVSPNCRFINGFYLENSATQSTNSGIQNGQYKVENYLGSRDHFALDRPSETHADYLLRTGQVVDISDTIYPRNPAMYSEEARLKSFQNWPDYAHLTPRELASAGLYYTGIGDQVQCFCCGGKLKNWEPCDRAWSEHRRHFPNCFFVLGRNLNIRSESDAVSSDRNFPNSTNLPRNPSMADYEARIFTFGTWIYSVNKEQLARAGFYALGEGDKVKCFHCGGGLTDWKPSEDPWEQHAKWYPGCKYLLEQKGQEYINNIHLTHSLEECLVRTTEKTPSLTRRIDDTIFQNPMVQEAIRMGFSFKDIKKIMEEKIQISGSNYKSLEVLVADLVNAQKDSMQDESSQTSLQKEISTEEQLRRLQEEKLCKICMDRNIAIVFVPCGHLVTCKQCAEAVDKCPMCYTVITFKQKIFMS

Chain of GST-c-IAP-1, Q13490 (Q13490 whole entry): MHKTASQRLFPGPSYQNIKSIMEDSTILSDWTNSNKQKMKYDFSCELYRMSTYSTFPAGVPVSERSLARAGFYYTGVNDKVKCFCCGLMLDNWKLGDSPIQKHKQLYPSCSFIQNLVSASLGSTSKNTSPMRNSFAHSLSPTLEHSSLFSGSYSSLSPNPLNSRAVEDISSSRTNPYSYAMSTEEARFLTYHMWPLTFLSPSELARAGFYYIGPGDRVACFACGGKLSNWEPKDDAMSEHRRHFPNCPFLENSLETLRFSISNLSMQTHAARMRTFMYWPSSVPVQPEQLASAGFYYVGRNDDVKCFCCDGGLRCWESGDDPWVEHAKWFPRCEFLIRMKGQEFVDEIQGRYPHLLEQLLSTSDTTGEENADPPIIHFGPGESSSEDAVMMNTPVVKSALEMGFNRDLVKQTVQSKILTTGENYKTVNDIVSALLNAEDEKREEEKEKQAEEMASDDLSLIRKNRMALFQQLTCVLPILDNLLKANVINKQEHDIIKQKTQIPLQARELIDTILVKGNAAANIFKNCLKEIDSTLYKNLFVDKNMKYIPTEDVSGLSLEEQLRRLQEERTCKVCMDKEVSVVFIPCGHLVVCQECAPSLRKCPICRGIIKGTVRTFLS
Chain of GST-c-IAP-2, Q13489 (Q13489 whole entry): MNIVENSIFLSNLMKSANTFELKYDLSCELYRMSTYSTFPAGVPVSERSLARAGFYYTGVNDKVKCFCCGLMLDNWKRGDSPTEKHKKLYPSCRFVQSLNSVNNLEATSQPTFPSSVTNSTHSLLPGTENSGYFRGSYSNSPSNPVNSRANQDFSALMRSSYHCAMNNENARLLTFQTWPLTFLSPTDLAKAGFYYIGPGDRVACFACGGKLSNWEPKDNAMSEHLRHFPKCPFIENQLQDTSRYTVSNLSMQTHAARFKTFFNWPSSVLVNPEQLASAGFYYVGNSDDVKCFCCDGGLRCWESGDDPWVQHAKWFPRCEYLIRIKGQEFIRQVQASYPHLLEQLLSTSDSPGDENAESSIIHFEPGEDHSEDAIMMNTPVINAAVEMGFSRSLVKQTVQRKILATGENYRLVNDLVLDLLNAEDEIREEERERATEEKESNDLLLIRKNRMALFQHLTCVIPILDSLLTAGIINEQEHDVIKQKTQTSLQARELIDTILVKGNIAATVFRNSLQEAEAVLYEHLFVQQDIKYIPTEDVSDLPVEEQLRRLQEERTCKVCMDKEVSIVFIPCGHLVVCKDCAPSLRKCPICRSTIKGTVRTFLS

B1: purified recombinant caspase-1 (protein)
chain: NPAMPTSSGSEGNVKLCSLEEAQRIWKQKSAEIYPIMDKSSRTRLALIICNEEFDSIPRRTGAEVDITGMTMLLQNLGYSVDVKKNLTASDMTTELEAFAHRPEHKTSDSTFLVFMSHGIREGICGKKHSEQVPDILQLNAIFNMLNTKNCPSLKDKPKVIIIQACRGDSPGVVWFKDSVGVSGNLSLPTTEEFEDDAIKKAHIEKDFIAFCSSTPDNVSWRHPTMGSVFIGRLIEHMQEYACSCDVEEIFRKVRFSFEQPDGRAQMPTTERVTLTRCFYLFPGH
substrate cleavage by purified caspase [1]: did not interfere with substrate cleavage by caspase-1, caspase-6 or caspase-8, even when added at a 50-fold molar excess

B2: purified recombinant active caspase-8 (catalytic subunit, Ser 217 to the C-terminus, His6-tagged) (protein)
chain: SESQTLDKVYQMKSKPRGYCLIINNHNFAKAREKVPKLHSIRDRNGTHLDAGALTTTFEELHFEIKPHDDCTVEQIYEILKIYQLMDHSNMDCFICCILSHGDKGIIYGTDGQEAPIYELTSQFTGLKCPSLAGKPKVFFIQACQGDNYQKGIPVETDSEEQPYLEMDLSSPQTRYIPDEADFLLGMATVNNCVSYRNPAEGTWYIQSLCQSLRERCPRGDDILTILTEVNYEVSNKDDKKNMGKQMPQPTFTLRKKLVFPSD
average ratio velocities (vi/vo) of DEVD-AFC hydrolysis [1]: ratios of about 1.0
substrate cleavage by purified caspase [1]: did not interfere with substrate cleavage by caspase-1, caspase-6 or caspase-8, even when added at a 50-fold molar excess

B3: purified recombinant active caspase-9 (His6-tagged) (protein)
chain: MDEADRRLLRRCRLRLVEELQVDQLWDALLSRELFRPHMIEDIQRAGSGSRRDQARQLIIDLETRGSQALPLFISCLEDTGQDMLASFLRTNRQAAKLSKPTLENLTPVVLRPEIRKPEVLRPETPRPVDIGSGGFGDVGALESLRGNADLAYILSMEPCGHCLIINNVNFCRESGLRTRTGSNIDCEKLRRRFSSLHFMVEVKGDLTAKKMVLALLELAQQDHGALDCCVVVILSHGCQASHLQFPGAVYGTDGCPVSVEKIVNIFNGTSCPSLGGKPKLFFIQACGGEQKDHGFEVASTSPEDESPGSNPEPDATPFQEGLRTFDQLDAISSLPTPSDIFVSYSTFPGFVSWRDPKSGSWYVETLDDIFEQWAHSEDLQSLLLRVANAVSVKGIYKQMPGCFNFLRKKLFFKTS
coupled reaction: pro-caspase-3 activation by caspase-9, Ac-DEVD-AFC hydrolysis (GST-c-IAP-2, Q13489): XIAP, c-IAP-1 and c-IAP-2 each efficiently inhibited pro-caspase-3 activation and cleavage of the tetrapeptide substrate
coupled reaction: pro-caspase-3 activation by caspase-9, Ac-DEVD-AFC hydrolysis (GST-c-IAP-1, Q13490): XIAP, c-IAP-1 and c-IAP-2 each efficiently inhibited pro-caspase-3 activation and cleavage of the tetrapeptide substrate
cleavage of purified pro-caspase-3 by active caspase-9 (immunoblot) [1]: Addition of an equimolar concentration of XIAP relative to caspase-9 strongly inhibited cleavage of pro-caspase-3.
coupled reaction: pro-caspase-3 activation by caspase-9, Ac-DEVD-AFC hydrolysis [1]: XIAP, c-IAP-1 and c-IAP-2 each efficiently inhibited pro-caspase-3 activation and cleavage of the tetrapeptide substrate

B4: purified recombinant caspase-6 (His6-tagged) (protein)
chain 1: AFYKREMFDPAEKYKMDHRRRGIALIFNHERFFWHLTLPERRGTCADRDNLTRRFSDLGFEVKCFNDLKAEELLLKIHEVSTVSHADADCFVCVFLSHGEGNHIYAYDAKIEIQTLTGLFKGDKCHSLVGKPKIFIIQACRGNQHDVPVIPLDVVD
chain 2: AASVYTLPAGADFLMCYSVAEGYYSHRETVNGSWYIQDLCEMLGKYGSSLEFTELLTLVNRKVSQRRVDFCKDPSAIGKKQVPCFASMLTKKLHFFPKSN
average ratio velocities (vi/vo) of DEVD-AFC hydrolysis [1]: ratios of about 1.0
substrate cleavage by purified caspase [1]: did not interfere with substrate cleavage by caspase-1, caspase-6 or caspase-8, even when added at a 50-fold molar excess
